Data reported in patent US20230192830A1 (VOYAGER THERAPEUTICS, published 2023).
Substitutions are numbered along the chain they refer to.

B1: V0023 (antibody, mouse IgG1, V domains shown)
VH: QVQLQQPGTELVKPGASVKLSCKASGYTFTIFWMHWVKQRPGHGLEWIGKINPNNGGGDYNEKFKSKATLTVDKSSTTAYLQLSSLTSEDSAVYYCARGTGTGAMDYWGQGTSVTVSS
VL: DVVMTQTPLSLPVSLGDHASISCRSSQSLVHSNGITHLYWYLQRPGQTPKLLIYRVSNRFSGVPDRFSGSGSGTDFTLKISSVEAEDLGVYFCFQGTHVPRTFGGGTKLEIE
B2: V0022 (antibody, mouse IgG1, V domains shown)
VH: QVQLQQPGTELVKPGSSVNLSCKASGFTFTRYWMHWVKERPGHGLEWIGNINPNNGGTDFNEKFKNKATLTVHKSSTTVFIQLSSLTSEDSAVYYCARGTGTGAMDYWGQGTSVTVSS
VL: B1 VL with H18Q, S32N, H37Y, R44K, T48S, S68G, S82R, E112K
B3: V0024 (antibody, mouse IgG1, V domains shown)
VH: B1 VH with I31R, H43Q, K50N, G58T, Y60N, K63R, K74R, T77S, L81M
VL: B1 VL with H18Q, I35N, R44K, T48S, N58S, S82R, E112K
B4: V0025 (antibody, mouse IgG1, V domains shown)
VH: QVQLQQPGTELVKPGASVKLSCKASGFTFTRFWMHWVKQRPGQGLEWIGNINPNNGETNYNEKFKIKAALTVDKSSTTAYMQLSSLTSEDSAVYSCARGTGTGAMDYWGQGTSVTVSS
VL: B1 VL with H18Q, N33T, I35N, H37Y, R44K, T48S, N58T, S81N, S82R, E112K
B5: V0035 (antibody, mouse IgG1, V domains shown)
VH: EAQLQQSGAELVRPGSSVKMSCKTSGYTFTSYGINWVKQRPGQGLEWIGYIYIRNGNTAYNEKFKGKATVTSDTSSSTVYMQLSSLTSEDSAIYFCAGTGTSFTYWGQGTLVTVSA
VL: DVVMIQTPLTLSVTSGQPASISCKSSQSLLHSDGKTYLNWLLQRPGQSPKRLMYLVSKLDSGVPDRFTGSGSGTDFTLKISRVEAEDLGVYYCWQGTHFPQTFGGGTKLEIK
B6: V0034 (antibody, mouse IgG1, V domains shown)
VH: B5 VH with A2V, I48V, N55D, T104A
VL: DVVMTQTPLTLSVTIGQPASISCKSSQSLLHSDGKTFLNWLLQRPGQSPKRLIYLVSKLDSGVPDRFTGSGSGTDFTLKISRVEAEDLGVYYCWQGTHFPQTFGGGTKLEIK
B7: V00018 (antibody, mouse IgG1, V domains shown)
VH: QVQLQQPGADLVRPGSSVKLSCKASGYTFTRSWMHWVKQRPIEGLEWIGNIDPSDSEAHYNQKFKDKATLTVDKFSNTAYMQLSSLTSEDSAVYYCARWDDFYVAYWGQGTLVTVSA
VL: DIVLTQSPASLAVSLGQRATISCRASKSVSTSGYSYIHWYQQKPGQPPKLLIYLASNLESGVPARFSGSGSGTDFTLNIHPVEEEDAATYYCQHSRELPWTFGGGTKLEIK
B8: V00014 (antibody, mouse IgG1, V domains shown)
VH: QAYLQQSGAELVRPGASVKMSCKASGYTFTSYNMHWVKQTPRQGLEWIGAIYPGNGDTSYNQKFKGKATLTVDKSSSTAYMQLSSLTSEDSAVYFCARGGMDYWGQGTSVTVSS
VL: DVVMTQTPLSLPVSLGDQASISCRSSQSLVHSNGNTYLHWYLQKPGQSPKLLIYKVSNRFSGVPDRFSGSGSGTDFTLKISRVEAEDLGVYFCSQSTHVPYTFGGGTKLEIK
B9: V2004 (antibody, mouse IgG1, V domains shown)
VH: QVQLQQSGAELARPGASVKLSCKSSGYIFSSYWMQWVKQRPGQGLEWIGAIYPGDGDTRYTPKFKGKATLTADKSSSTAYMQLTSLASEDSAVYYCAKGYSQSFDYWGQGTTLTVSS
VL: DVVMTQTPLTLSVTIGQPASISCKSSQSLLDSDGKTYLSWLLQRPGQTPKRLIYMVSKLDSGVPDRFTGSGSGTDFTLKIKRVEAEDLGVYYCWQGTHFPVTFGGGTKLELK

Columns and labels:
[1] = molecular target: T1, enriched paired helical filament tau protein (ePHF) (human, UniProt P10636 2-758); test: cell-based or functional assay
T1 sequence (P10636 other isoform, or with tags, fused parts or gaps limits assumed): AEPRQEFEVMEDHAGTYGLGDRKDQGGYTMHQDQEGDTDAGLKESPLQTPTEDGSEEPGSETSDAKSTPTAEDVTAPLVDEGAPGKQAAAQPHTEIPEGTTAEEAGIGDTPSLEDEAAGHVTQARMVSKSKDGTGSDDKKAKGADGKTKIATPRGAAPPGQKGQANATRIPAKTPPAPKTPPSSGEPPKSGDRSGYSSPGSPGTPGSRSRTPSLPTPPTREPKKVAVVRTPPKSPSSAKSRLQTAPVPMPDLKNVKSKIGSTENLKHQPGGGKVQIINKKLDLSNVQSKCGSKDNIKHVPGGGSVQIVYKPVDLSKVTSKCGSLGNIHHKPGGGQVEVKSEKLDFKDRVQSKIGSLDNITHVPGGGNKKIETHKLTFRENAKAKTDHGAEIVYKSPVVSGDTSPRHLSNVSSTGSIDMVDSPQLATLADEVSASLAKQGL

[2] = molecular target: T1, enriched paired helical filament tau …; test: direct ELISA, ePHF coated
Description: (§1) These candidate antibodies were analyzed for binding to ePHF and specificity for ePHF over wild type tau by direct ELISA.
(§2) For direct ePHF and wildtype tau ELISA, plates were first coated with ePHF or wild type tau. Antigen solutions were prepared in PBS and 50 µL were pipetted into each well. Plates were covered and incubated for one hour at 37° C. or overnight at 4° C. Plates were then washed and blocked by addition of 150 µl of blocking buffer to each well and incubated one hour at room temperature. Plates were then washed before addition of serially diluted candidate antibody samples prepared in blocking buffer. Detection of candidate antibody binding was carried out by washing plates and adding a solution of enzyme-labeled secondary antibody in blocking buffer to each well. Secondary antibody binding was detected by addition of substrate and spectrophotometric analysis of resulting reaction product.

[3] = molecular target: T1, enriched paired helical filament tau …; test: follow up analysis, method not stated
[4] = molecular target: wild type tau (UniProt P10636-8 1-441, limits assumed); test: direct ELISA, wild type tau coated
wild type tau, sequence (P10636 other isoform, or with tags, fused parts or gaps limits assumed): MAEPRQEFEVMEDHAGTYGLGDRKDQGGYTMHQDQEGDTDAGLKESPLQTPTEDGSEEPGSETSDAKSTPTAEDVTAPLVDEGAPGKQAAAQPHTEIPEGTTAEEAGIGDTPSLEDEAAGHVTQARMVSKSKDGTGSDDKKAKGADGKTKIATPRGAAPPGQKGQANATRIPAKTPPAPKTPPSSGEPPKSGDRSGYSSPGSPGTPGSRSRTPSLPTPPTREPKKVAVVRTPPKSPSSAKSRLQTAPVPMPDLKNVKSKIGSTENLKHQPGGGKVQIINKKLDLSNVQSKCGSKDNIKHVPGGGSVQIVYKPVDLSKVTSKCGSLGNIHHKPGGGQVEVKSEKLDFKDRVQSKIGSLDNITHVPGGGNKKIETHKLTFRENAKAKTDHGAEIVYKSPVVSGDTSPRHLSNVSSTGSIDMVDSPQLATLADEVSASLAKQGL
Description: as §1, §2

[5] = molecular target: iPHF (UniProt P10636-8 1-441); test: Octet, epitope binning of Example 4
Description: Variable domain nucleic acid sequences from antibodies obtained from immunizations described above were used to prepare recombinant mouse IgG antibodies for iPHF affinity measurement and epitope binding competition analysis. Studies were carried out by Octet (ForteBio, Menlo Park, CA) analysis.
For epitope binding competition analysis, a process also referred to as “epitope binning,” candidate antibodies were analyzed using a sandwich assay format, wherein a first “capture” antibody is attached to the Octet biosensor before antigen and a second antibody are sequentially introduced and biosensor readings are used to determine whether one or both antibodies bind to each antigen. […] PT3, IPN002, or C10.2 antibodies were used as capture antibodies and immobilized on AMC biosensor tips as described above. Biosensor tips were then washed and blocked in 10 µg/ml MOPC. After a further wash, biosensor capture antibodies were associated with iPHF. Candidate antibodies were then analyzed for binding to iPHF. MOPC (non antigen-specific control) and PT3, IPN002, or C10.2 antibodies (in each case matching the biosensor antibody) were used as directly competing controls.

Binder	Average IC50 (nM), tau aggregation inhibition, immunodepletion assay with tau RD Biosensor cells [1] [nM]	EC50 [2] [nM]	also measured
B1	16.5	0.11	selectivity for ePHF over wild type tau [3]: > 100 fold
B2	18.2	0.07	selectivity for ePHF over wild type tau [3]: > 100 fold
B3	18.6		
B4		0.098	
B5		0.315	
B6		0.351	
B7		0.718	
B8			binding result [4]: no binding; binding result [5]: no binding
B9			binding result [4]: no binding
